Measured values: US20070111281A1
pKd: −log10 of the molar value.

Columns and labels:
[1] = target: shFcγRIIIa-Q162-H6 (soluble human FcγRIIIa lacking glycosylation at position 162, hexahistidine tag, Example 3) (human) (UniProt P08637); assay: SPR (Biacore1000), receptor coupled to CM5 chip, IgG in flow, steady state
[2] = target: shFcγRIIIa-H6 (soluble human FcγRIIIa with hexahistidine tag, Example 3) (human) (UniProt P08637); assay: as above

Row | pKd [1] | pKd [2] | Substance
1 | 6.54 | 6.56 | IgG mutant 88 T260H, non-GE glycoform (antibody)
2 | 6.43 | 6.16 | IgG mutant 20 S239W, non-GE glycoform (antibody)
3 | 6.91 | 7.07 | IgG mutant 43 S239D, non-GE glycoform (antibody)
4 | 7.06 | 6.91 | IgG mutant 9 H268D, non-GE glycoform (antibody)

Continued, substance first:

Row | Substance | pKd [1] | pKd [2]
5 | IgG mutant 85 F243H, non-GE glycoform (antibody) | 6.42 | 6.27
6 | IgG mutant 98 S239E, non-GE glycoform (antibody) | 6.77 | 6.81
7 | IgG mutant 22 F243E, non-GE glycoform (antibody) | 6.37 | 6.05
8 | control antibody (humanized IgG1), non-GE glycoform | 6.67 | 6.61
9 | IgG mutant 30 H268E, non-GE glycoform (antibody) | 6.82 | 6.72
